Laboratory results reported in the FLAb antibody collection (doi:10.1101/2023.12.08.570889).

Target: FXI
Assay: Kd (SPR)

Binder	Kd
unnamed (protein) chain 1: EVQLLESGGGLVQPGGSLRLSCAASGFTFSQYGMDWVRQAPGKGLEWVSGIGPSGGSTVYADSVKGRFTISRDNSKNTLYLQMNSLRAEDTAVYYCARDGPAYYYGFDVWGQGTTVTVSS chain 2: DIQMTQSPSSLSASVGDRVTITCQASQDISNYLNWYQQKPGKAPKLLIYDASNLETGVPSRFSGSGSGTDFTFTISSLQPEDIATYYCQQADSFPVTFGGGTKVEIK	175 nM
unnamed (protein) chain 1: EVQLLESGGGLVQPGGSLRLSCAASGFTFSQYGMDWVRQAPGKGLEWVSGIGPSGGSTVYADSVKGRFTISRDNSKNTLYLQMNSLRAEDTAVYYCTRDGPAYYYAFDYWGQGTTVTVSS chain 2: DIQMTQSPSSLSASVGDRVTITCQASQDISNYLNWYQQKPGKAPKLLIYDASNLETGVPSRFSGSGSGTDFTFTISSLQPEDIATYYCQQADSFPVTFGGGTKVEIK	147 nM
unnamed (protein) chain 1: EVQLLESGGGLVQPGGSLRLSCAASGFTFSQYGMDWVRQAPGKGLEWVSGIGPSGGSTVYADSVKGRFTISRDNSKNTLYLQMNSLRAEDTAVYYCTRGGPWYYYAFDVWGQGTTVTVSS chain 2: DIQMTQSPSSLSASVGDRVTITCQASQDISNYLNWYQQKPGKAPKLLIYDASNLETGVPSRFSGSGSGTDFTFTISSLQPEDIATYYCQQADSFPVTFGGGTKVEIK	284 nM
unnamed (protein) chain 1: EVQLLESGGGLVQPGGSLRLSCAASGFTFSQYGMDWVRQAPGKGLEWVSGIGPSGGSTVYADSVKGRFTISRDNSKNTLYLQMNSLRAEDTAVYYCTRGGPAYYYGFDYWGQGTTVTVSS chain 2: DIQMTQSPSSLSASVGDRVTITCQASQDISNYLNWYQQKPGKAPKLLIYDASNLETGVPSRFSGSGSGTDFTFTISSLQPEDIATYYCQQADSFPVTFGGGTKVEIK	148 nM
unnamed (protein) chain 1: EVQLLESGGGLVQPGGSLRLSCAASGFTFSQYGMDWVRQAPGKGLEWVSGIGPSGGSTVYADSVKGRFTISRDNSKNTLYLQMNSLRAEDTAVYYCTRGGPSWYYAFDVWGQGTTVTVSS chain 2: DIQMTQSPSSLSASVGDRVTITCQASQDISNYLNWYQQKPGKAPKLLIYDASNLETGVPSRFSGSGSGTDFTFTISSLQPEDIATYYCQQADSFPVTFGGGTKVEIK	210 nM
unnamed (protein) chain 1: EVQLLESGGGLVQPGGSLRLSCAASGFTFSQYGMDWVRQAPGKGLEWVSGIGPSGGSTVYADSVKGRFTISRDNSKNTLYLQMNSLRAEDTAVYYCTRGGPAYYYAFDYWGQGTTVTVSS chain 2: DIQMTQSPSSLSASVGDRVTITCQASQDISNYLNWYQQKPGKAPKLLIYDASNLETGVPSRFSGSGSGTDFTFTISSLQPEDIATYYCQQADSFPVTFGGGTKVEIK	306 nM
unnamed (protein) chain 1: EVQLLESGGGLVQPGGSLRLSCAASGFTFSQYGMDWVRQAPGKGLEWVSGIGPSGGSTVYADSVKGRFTISRDNSKNTLYLQMNSLRAEDTAVYYCTRDGRSYYYAFDVWGQGTTVTVSS chain 2: DIQMTQSPSSLSASVGDRVTITCQASQDISNYLNWYQQKPGKAPKLLIYDASNLETGVPSRFSGSGSGTDFTFTISSLQPEDIATYYCQQADSFPVTFGGGTKVEIK	750 nM
unnamed (protein) chain 1: EVQLLESGGGLVQPGGSLRLSCAASGFTFSQYGMDWVRQAPGKGLEWVSGIGPSGGSTVYADSVKGRFTISRDNSKNTLYLQMNSLRAEDTAVYYCARGGPAYYYAFDIWGQGTTVTVSS chain 2: DIQMTQSPSSLSASVGDRVTITCQASQDISNYLNWYQQKPGKAPKLLIYDASNLETGVPSRFSGSGSGTDFTFTISSLQPEDIATYYCQQADSFPVTFGGGTKVEIK	430 nM
unnamed (protein) chain 1: EVQLLESGGGLVQPGGSLRLSCAASGFTFSQYGMDWVRQAPGKGLEWVSGIGPSGGSTVYADSVKGRFTISRDNSKNTLYLQMNSLRAEDTAVYYCTRDGGAYYYAFDVWGQGTTVTVSS chain 2: DIQMTQSPSSLSASVGDRVTITCQASQDISNYLNWYQQKPGKAPKLLIYDASNLETGVPSRFSGSGSGTDFTFTISSLQPEDIATYYCQQADSFPVTFGGGTKVEIK	135 nM
unnamed (protein) chain 1: EVQLLESGGGLVQPGGSLRLSCAASGFTFSQYGMDWVRQAPGKGLEWVSGIGPSGGSTVYADSVKGRFTISRDNSKNTLYLQMNSLRAEDTAVYYCARDGPSYYYAFDVWGQGTTVTVSS chain 2: DIQMTQSPSSLSASVGDRVTITCQASQDISNYLNWYQQKPGKAPKLLIYDASNLETGVPSRFSGSGSGTDFTFTISSLQPEDIATYYCQQADSFPVTFGGGTKVEIK	134 nM

These reach a lower Kd. Values come first.

Kd	Binder
106 nM	unnamed (protein) chain 1: EVQLLESGGGLVQPGGSLRLSCAASGFTFSQYGMDWVRQAPGKGLEWVSGIGPSGGSTVYADSVKGRFTISRDNSKNTLYLQMNSLRAEDTAVYYCARDGPAYYYAFDYWGQGTTVTVSS chain 2: DIQMTQSPSSLSASVGDRVTITCQASQDISNYLNWYQQKPGKAPKLLIYDASNLETGVPSRFSGSGSGTDFTFTISSLQPEDIATYYCQQADSFPVTFGGGTKVEIK
78.2 nM	unnamed (protein) chain 1: EVQLLESGGGLVQPGGSLRLSCAASGFTFSQYGMDWVRQAPGKGLEWVSGIGPSGGSTVYADSVKGRFTISRDNSKNTLYLQMNSLRAEDTAVYYCTRDGPAWYYAFDYWGQGTTVTVSS chain 2: DIQMTQSPSSLSASVGDRVTITCQASQDISNYLNWYQQKPGKAPKLLIYDASNLETGVPSRFSGSGSGTDFTFTISSLQPEDIATYYCQQADSFPVTFGGGTKVEIK
59.9 nM	unnamed (protein) chain 1: EVQLLESGGGLVQPGGSLRLSCAASGFTFSQYGMDWVRQAPGKGLEWVSGIGPSGGSTVYADSVKGRFTISRDNSKNTLYLQMNSLRAEDTAVYYCARDGPSWYYAFDVWGQGTTVTVSS chain 2: DIQMTQSPSSLSASVGDRVTITCQASQDISNYLNWYQQKPGKAPKLLIYDASNLETGVPSRFSGSGSGTDFTFTISSLQPEDIATYYCQQADSFPVTFGGGTKVEIK
51.7 nM	unnamed (protein) chain 1: EVQLLESGGGLVQPGGSLRLSCAASGFTFSQYGMDWVRQAPGKGLEWVSGIGPSGGSTVYADSVKGRFTISRDNSKNTLYLQMNSLRAEDTAVYYCTRDGPAWYYAFDVWGQGTTVTVSS chain 2: DIQMTQSPSSLSASVGDRVTITCQASQDISNYLNWYQQKPGKAPKLLIYDASNLETGVPSRFSGSGSGTDFTFTISSLQPEDIATYYCQQADSFPVTFGGGTKVEIK
79.8 nM	unnamed (protein) chain 1: EVQLLESGGGLVQPGGSLRLSCAASGFTFSQYGMDWVRQAPGKGLEWVSGIGPSGGSTVYADSVKGRFTISRDNSKNTLYLQMNSLRAEDTAVYYCTRDGPWYYYAFDVWGQGTTVTVSS chain 2: DIQMTQSPSSLSASVGDRVTITCQASQDISNYLNWYQQKPGKAPKLLIYDASNLETGVPSRFSGSGSGTDFTFTISSLQPEDIATYYCQQADSFPVTFGGGTKVEIK
95.3 nM	unnamed (protein) chain 1: EVQLLESGGGLVQPGGSLRLSCAASGFTFSQYGMDWVRQAPGKGLEWVSGIGPSGGSTVYADSVKGRFTISRDNSKNTLYLQMNSLRAEDTAVYYCTRDGPSYYYGFDVWGQGTTVTVSS chain 2: DIQMTQSPSSLSASVGDRVTITCQASQDISNYLNWYQQKPGKAPKLLIYDASNLETGVPSRFSGSGSGTDFTFTISSLQPEDIATYYCQQADSFPVTFGGGTKVEIK
109 nM	unnamed (protein) chain 1: EVQLLESGGGLVQPGGSLRLSCAASGFTFSQYGMDWVRQAPGKGLEWVSGIGPSGGSTVYADSVKGRFTISRDNSKNTLYLQMNSLRAEDTAVYYCTRDGPAYYYAFDIWGQGTTVTVSS chain 2: DIQMTQSPSSLSASVGDRVTITCQASQDISNYLNWYQQKPGKAPKLLIYDASNLETGVPSRFSGSGSGTDFTFTISSLQPEDIATYYCQQADSFPVTFGGGTKVEIK
84 nM	unnamed (protein) chain 1: EVQLLESGGGLVQPGGSLRLSCAASGFTFSQYGMDWVRQAPGKGLEWVSGIGPSGGSTVYADSVKGRFTISRDNSKNTLYLQMNSLRAEDTAVYYCARDGPAYYYAFDVWGQGTTVTVSS chain 2: DIQMTQSPSSLSASVGDRVTITCQASQDISNYLNWYQQKPGKAPKLLIYDASNLETGVPSRFSGSGSGTDFTFTISSLQPEDIATYYCQQADSFPVTFGGGTKVEIK
68 nM	unnamed (protein) chain 1: EVQLLESGGGLVQPGGSLRLSCAASGFTFSQYGMDWVRQAPGKGLEWVSGIGPSGGSTVYADSVKGRFTISRDNSKNTLYLQMNSLRAEDTAVYYCTRDGPYYYYAFDYWGQGTTVTVSS chain 2: DIQMTQSPSSLSASVGDRVTITCQASQDISNYLNWYQQKPGKAPKLLIYDASNLETGVPSRFSGSGSGTDFTFTISSLQPEDIATYYCQQADSFPVTFGGGTKVEIK
